This note sets out measurements from publication PMC10286459, “The development of an anti-cancer peptide M1-21 targeting transcription factor FOXM1” (Cell & Bioscience, 2023).

The target in one experiment is T1, GFP-FOXM1(688-748) (human).
T1 construct: also called GFP-M1(688–748); FOXM1 C-terminus
T1 sequence (Q08050 688-748, looked up): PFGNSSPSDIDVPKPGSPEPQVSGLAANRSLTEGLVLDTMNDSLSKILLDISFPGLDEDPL
Kind of experiment: MST.

A further experiment concerns the target T2, GFP-FOXM1(1-138) (human, UniProt Q08050 1-138).
T2 construct: also called GFP-M1(1-138); FOXM1 N-terminal domain
T2 sequence (looked up): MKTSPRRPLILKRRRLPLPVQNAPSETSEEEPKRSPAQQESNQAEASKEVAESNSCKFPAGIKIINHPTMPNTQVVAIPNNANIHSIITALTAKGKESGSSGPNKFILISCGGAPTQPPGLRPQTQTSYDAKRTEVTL
Nature of the experiment: MST.

The target in another experiment is T3, GFP-FOXM1(232-332) (human, UniProt Q08050-3 232-332).
T3 construct: also called GFP-M1(232–332); FOXM1 DBD
T3 sequence (looked up): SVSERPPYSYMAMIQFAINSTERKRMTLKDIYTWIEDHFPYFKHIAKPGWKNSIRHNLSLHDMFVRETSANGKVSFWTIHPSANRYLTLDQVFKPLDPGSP
Kind of experiment: MST.

The target in the next experiment is T4, GFP-FOXM1 (human, UniProt Q08050-3 1-801).
T4 sequence (looked up): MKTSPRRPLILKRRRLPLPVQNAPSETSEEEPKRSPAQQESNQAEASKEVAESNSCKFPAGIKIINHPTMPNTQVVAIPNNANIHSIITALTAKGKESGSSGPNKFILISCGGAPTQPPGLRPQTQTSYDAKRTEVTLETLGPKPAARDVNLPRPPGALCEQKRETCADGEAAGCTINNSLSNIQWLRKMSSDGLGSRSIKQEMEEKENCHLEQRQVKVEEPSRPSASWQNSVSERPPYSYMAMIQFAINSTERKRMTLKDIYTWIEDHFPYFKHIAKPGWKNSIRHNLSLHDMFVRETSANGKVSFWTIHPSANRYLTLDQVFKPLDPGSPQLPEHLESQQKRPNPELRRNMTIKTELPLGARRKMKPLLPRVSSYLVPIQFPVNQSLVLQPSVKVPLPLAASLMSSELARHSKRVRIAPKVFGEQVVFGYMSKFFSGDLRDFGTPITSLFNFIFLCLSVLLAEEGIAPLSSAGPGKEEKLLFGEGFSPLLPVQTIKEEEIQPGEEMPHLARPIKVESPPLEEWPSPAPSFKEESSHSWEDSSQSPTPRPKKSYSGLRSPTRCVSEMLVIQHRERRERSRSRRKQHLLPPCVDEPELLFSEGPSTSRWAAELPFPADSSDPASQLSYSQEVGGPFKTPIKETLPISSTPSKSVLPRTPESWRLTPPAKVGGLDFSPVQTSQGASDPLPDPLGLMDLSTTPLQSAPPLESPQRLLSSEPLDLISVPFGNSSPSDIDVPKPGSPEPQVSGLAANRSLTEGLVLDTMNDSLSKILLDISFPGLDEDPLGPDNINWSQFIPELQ
Nature of the experiment: MST.

For a further experiment, the target named is T5, endogenous FOXM1 protein (human (endogenous in 293T and …, UniProt Q08050 1-763)).
T5 sequence (looked up): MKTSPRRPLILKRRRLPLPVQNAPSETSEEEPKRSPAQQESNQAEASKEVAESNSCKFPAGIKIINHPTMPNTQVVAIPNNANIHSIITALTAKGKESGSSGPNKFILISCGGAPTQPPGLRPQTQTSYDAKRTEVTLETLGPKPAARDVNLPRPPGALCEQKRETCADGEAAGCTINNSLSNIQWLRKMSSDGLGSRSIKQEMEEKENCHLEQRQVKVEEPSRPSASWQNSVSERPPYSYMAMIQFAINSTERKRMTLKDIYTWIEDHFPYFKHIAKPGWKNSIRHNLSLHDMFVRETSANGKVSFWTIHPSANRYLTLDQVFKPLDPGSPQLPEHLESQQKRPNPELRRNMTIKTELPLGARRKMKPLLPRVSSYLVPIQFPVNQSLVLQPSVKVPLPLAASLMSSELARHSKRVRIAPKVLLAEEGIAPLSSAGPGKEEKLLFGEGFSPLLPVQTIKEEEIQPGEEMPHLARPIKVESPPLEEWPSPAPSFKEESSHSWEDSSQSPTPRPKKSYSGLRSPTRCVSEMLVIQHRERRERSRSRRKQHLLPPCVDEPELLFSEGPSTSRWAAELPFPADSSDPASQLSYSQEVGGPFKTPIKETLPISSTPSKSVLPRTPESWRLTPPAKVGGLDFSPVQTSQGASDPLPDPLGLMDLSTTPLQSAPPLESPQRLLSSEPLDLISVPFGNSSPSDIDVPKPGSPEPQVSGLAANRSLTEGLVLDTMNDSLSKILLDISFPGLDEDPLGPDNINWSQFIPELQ
Kind of experiment: cell-based or functional assay.

Non-standard residues stand in square brackets, D forms with d. No end group written: not given here.

B1: M1-21 (peptide)
chain: [dQ][dT][dQ][dP][dR][dL]G[dP][dP][dQ][dT][dP][dA]GG[dC][dS][dI][dL][dI][dF]
modifications: not fully specified; also: retro-inverso, chain direction relative to parent not given here
In the case of B1, the Kd with GFP-FOXM1(688-748) is 1.79 µM; with GFP-FOXM1(1-138), 6.27 µM; in the experiment with GFP-FOXM1(232-332) it was 5.71 µM; with GFP-FOXM1 it was 12.5 µM. The “IC50 of cell viability, MDA-MB-231 cells, 48 h (trypan blue)” value with endogenous FOXM1 protein was found to be 33.8 µM.

The term Kd denotes the free concentration of one partner at which half of the binding sites on the other are occupied at equilibrium, for simple one-to-one binding. A low value points to tighter binding.
